Measurements: patent publication US20040106557A1
Ends that are not written are not given here.

Tests used:
[1] = target: PSA-alpha-2-macroglobulin complex (PSA-A2M), purified (human) (UniProt P07288); test: cell-based or functional assay
[2] = target: Prostate specific antigen (PSA), purified from human seminal fluid (human) (UniProt P07288); test: inhibition IFMA: 200 µl fraction preincubated with PSA captured by MAb 5E4, then GST-C4 (167 nM); competitor GST-C-4

| enzyme activity of A2M-complexed PSA (S-2586, OD 405 nm), 50-fold molar excess of peptide [1] [fold] | reduction of the binding of GST-peptide to PSA (%) [2] [%] | Binder |
| --- | --- | --- |
| 2 |  | GACVAYCIEHHCWTCGA (disulfide (positions not given here); not fully specified (bridges); also: cyclic, disulphide bonds between cysteines, pairing of the four Cys not given here) [chemically synthesized peptide C-4 with GA flanks (…)] |
|  | 30 | CVAYCIEHHCWTC (peptide, part only; not given: vector flanking residues, part only) [peptide cleaved from GST-C-4 by thrombin (about 3 kD, estimated 31 residues)] |
